Results taken from patent US20040002124A1.

Key:
[1] = biological target: αVβ3 integrin on cells (human) (UniProt P06756); experiment: cell-based or functional assay
[2] = biological target: α6β1 integrin on human cells (human) (UniProt P23229); experiment: cell-based or functional assay
Chain of α6β1 integrin on human cells (human) (P23229 24-1130, chain 1 of 2): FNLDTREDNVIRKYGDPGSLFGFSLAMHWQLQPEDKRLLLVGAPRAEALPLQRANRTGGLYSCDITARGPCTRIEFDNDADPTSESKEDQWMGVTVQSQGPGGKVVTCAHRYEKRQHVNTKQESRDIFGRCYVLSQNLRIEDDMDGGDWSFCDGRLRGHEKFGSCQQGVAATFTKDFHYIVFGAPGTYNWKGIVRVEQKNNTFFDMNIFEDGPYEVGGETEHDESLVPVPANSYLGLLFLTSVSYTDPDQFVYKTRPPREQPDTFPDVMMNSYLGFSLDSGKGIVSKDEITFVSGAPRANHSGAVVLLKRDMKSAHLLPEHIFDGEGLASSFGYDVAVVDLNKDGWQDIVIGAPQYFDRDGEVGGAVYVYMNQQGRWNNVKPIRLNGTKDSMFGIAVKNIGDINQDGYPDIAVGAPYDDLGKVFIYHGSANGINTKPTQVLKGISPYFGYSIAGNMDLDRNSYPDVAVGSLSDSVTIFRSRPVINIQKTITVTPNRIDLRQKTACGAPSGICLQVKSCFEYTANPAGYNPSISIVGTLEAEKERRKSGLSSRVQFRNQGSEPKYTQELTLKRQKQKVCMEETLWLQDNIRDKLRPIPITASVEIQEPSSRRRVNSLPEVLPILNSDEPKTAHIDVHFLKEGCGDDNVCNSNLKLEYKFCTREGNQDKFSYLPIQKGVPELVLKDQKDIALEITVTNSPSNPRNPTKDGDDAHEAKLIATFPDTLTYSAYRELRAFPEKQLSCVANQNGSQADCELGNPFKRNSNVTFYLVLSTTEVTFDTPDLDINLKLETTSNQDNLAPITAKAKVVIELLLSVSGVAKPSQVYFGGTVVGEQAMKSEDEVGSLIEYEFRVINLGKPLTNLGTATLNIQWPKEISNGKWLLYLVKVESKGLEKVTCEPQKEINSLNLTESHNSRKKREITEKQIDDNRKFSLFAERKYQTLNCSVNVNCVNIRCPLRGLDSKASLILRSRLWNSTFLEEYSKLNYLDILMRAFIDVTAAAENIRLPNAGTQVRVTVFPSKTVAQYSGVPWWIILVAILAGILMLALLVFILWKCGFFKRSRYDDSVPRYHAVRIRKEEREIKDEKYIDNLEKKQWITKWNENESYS
Chain of α6β1 integrin on human cells (human) (P05556 21-798, chain 2 of 2, further chain): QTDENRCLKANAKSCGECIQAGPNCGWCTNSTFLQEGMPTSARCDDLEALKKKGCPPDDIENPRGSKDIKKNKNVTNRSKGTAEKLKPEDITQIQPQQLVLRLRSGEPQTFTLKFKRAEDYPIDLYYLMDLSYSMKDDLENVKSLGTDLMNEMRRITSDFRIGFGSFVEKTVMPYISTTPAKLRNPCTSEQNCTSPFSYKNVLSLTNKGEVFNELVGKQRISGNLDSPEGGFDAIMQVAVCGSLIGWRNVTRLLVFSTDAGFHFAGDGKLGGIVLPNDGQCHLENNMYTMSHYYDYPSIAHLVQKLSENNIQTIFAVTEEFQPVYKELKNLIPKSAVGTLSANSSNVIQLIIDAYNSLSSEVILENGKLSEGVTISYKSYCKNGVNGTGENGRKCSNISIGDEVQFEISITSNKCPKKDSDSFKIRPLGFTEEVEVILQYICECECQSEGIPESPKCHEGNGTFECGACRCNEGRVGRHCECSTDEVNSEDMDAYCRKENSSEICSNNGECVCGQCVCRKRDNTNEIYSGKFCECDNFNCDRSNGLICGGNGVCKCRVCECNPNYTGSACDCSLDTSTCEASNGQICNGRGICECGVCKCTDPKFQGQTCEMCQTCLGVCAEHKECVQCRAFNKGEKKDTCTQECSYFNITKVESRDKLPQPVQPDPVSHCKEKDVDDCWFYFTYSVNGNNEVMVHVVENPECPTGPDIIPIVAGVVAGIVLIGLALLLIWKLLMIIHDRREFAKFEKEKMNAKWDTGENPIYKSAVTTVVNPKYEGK

Chain of αVβ3 integrin on cells (human) (P06756 31-1048, chain 1 of 2): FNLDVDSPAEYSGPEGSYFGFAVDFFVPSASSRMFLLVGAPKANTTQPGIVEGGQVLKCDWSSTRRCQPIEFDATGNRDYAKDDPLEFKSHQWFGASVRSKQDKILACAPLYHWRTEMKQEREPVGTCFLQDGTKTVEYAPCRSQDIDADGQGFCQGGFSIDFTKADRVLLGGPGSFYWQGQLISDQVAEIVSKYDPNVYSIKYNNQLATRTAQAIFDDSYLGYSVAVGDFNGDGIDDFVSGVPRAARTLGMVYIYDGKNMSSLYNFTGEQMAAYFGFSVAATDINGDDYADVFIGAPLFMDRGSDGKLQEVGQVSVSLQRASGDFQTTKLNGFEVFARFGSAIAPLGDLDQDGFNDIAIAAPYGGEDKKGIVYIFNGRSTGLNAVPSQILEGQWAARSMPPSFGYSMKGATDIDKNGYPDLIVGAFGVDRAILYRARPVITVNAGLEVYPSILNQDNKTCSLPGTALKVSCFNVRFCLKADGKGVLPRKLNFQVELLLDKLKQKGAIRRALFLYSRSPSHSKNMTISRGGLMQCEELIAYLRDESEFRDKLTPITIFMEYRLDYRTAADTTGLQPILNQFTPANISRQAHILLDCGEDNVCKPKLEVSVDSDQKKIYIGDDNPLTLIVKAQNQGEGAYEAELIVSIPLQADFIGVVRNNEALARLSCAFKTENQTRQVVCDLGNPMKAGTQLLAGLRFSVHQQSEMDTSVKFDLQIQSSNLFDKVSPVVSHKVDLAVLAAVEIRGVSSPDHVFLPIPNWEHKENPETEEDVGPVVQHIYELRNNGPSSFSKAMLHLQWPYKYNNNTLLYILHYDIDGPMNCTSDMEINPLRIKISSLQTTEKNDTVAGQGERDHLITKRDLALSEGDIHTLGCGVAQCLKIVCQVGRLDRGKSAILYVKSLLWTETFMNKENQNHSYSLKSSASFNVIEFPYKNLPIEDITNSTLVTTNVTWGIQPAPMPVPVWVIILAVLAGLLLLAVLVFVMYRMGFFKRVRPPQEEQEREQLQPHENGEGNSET
Chain of αVβ3 integrin on cells (human) (P05106 27-788, chain 2 of 2, further chain): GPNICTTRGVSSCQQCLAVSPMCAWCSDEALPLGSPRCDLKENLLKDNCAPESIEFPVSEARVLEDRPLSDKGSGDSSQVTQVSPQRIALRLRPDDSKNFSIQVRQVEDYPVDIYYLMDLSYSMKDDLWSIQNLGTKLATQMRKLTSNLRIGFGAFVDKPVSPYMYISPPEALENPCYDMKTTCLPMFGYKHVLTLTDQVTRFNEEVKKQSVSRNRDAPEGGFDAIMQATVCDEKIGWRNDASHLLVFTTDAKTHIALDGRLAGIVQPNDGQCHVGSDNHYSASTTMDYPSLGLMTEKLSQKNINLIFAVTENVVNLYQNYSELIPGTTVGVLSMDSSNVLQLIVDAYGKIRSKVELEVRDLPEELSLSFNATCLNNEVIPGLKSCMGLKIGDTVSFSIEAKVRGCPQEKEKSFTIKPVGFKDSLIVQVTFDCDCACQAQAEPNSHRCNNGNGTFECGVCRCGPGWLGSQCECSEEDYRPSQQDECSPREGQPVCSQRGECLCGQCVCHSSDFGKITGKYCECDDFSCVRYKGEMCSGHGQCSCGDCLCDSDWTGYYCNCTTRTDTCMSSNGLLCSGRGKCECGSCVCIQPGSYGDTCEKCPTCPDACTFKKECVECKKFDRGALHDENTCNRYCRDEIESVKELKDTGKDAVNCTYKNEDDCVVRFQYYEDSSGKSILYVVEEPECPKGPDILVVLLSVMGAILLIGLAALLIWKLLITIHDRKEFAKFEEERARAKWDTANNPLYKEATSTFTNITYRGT

Substance	relative binding capacity of HUVE cells on wild-type Cyr61 (5 µg/ml) after pre-incubation with 40 µg/ml anti-αvβ3 antibody (LM609); no pre-incubation = 100 [1] [%]	relative binding capacity of HUVE cells on wild-type Cyr61 (5 µg/ml) after pre-incubation with 1 mM RGD peptide; no pre-incubation = 100 [1] [%]	relative binding capacity of HUVE cells on wild-type Cyr61 (5 µg/ml) after pre-incubation with 2.5 mM EDTA; no pre-incubation = 100 [1] [%]	inhibition of 1064SK fibroblast adhesion by anti-α6 antibody (20 µg/ml) [2] [%]	1064SK fibroblast adhesion to laminin (A620), with anti-α6 antibody (20 µg/ml) [2] [A620]	1064SK fibroblast adhesion to laminin (A620), without anti-α6 antibody [2] [A620]	inhibition of 1064SK fibroblast adhesion to laminin by anti-α6 antibody [2] [%]
murine Cyr61 (from UniProt P18406 25-379) (ligand)	42	50	22	78			
laminin (ligand)					0.48	0.62	22
